These are literature values, as cited in publication PMC7555924.

The target in one series is Cys47 (UniProt position 48, SLKASCLYGQL). Particulars: not stated (the Cys47 thiolate is described as ion-paired with Lys54).
In the next series the target is Cys75 (UniProt position 99, FGDELCKVASL). The note with it: fully reduced (all disulfides cleaved), molten globule-like conformation.
The target of another series is Cys95 (UniProt position 121, SKYPNCAYKTT). Particulars: fully reduced (all disulfides cleaved), molten globule-like conformation.
In another series the target is Cys94 (UniProt position 94, GSRNLCNIPCS). Particulars: fully reduced (all disulfides cleaved), molten globule-like conformation.
For another series, the target named is Cys1 (UniProt position 1, -----CGVPAI). Particulars: fully reduced (all disulfides cleaved), molten globule-like conformation.

As a reminder, the pKa is the pH at which an ionisable group is half protonated. In the case of “Glutathione S-transferase P1-1 (GSTP1-1) (Homo sapiens)”, the pKa with Cys47 is listed as 3.5. As for “Serum albumin (reduced, rBSA) (Bos taurus)”, the pKa with Cys75 is 6.6. Turning to “Ribonuclease A (reduced, rRNase) (Bos taurus)”, the pKa with Cys95 is 7.9. Regarding “Lysozyme C (reduced, rLyz) (Gallus gallus)”, the pKa with Cys94 is 6.6. On to “Chymotrypsinogen A (reduced, rChTg) (Bos taurus)”, for which, in the series with Cys1, the pKa is listed as 8.1.
